The results in this text go back to US20190300590A1 (PROTAGONIST THERAPEUTICS, published 2019).

Like-named read-outs stand apart in the source and are kept apart here. Bridges are numbered along the chain shown (N, C = ends). Primed or numbered codes have the meaning given here. Where no end group is shown, it is not given here. [ ]: non-standard residue; d: D form. Bip = N[C@@H](Cc1ccc(-c2ccccc2)cc1)C(=O)O; 1Nal = N[C@@H](Cc1cccc2ccccc12)C(=O)O; NMeH = CN[C@@H](Cc1c[nH]cn1)C(=O)O; NMeE = CN[C@@H](CCC(=O)O)C(=O)O; Aic′ = not defined here; Aib = CC(C)(N)C(=O)O; PEG1 = NCCOCCC(=O)O; AEA = NCCOCC(=O)O

Experiment [1] deals with T1, IL23R_huFC (human, UniProt Q5VWK5 24-353).
T1 sequence (looked up): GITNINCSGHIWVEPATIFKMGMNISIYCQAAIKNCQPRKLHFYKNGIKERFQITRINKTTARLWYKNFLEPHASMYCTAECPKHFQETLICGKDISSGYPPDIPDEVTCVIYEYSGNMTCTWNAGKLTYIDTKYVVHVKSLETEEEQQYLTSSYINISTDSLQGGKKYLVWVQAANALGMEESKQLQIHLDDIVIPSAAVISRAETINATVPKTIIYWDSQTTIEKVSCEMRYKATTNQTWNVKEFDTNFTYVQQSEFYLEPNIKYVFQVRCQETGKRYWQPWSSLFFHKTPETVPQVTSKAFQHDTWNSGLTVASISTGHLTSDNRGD
Description: IL23-IL23R competitive ELISA. A general note: ELISA stands for enzyme-linked immunosorbent assay.

Experiment [2] deals with T1, IL23R_huFC. Put plainly: IL23-IL23R competitive ELISA. The source holds these as a separate data set.

B1: Ac-CADWVCY-[1-Nal]-H-[AEP]-G-NH2 (peptide)
peptide: Ac-CADWVCY[1Nal]H[PEG1]G-NH2
modifications: disulfide 1-6
SMILES: CC(=O)N[C@H]1CSSC[C@@H](C(=O)N[C@@H](Cc2ccc(O)cc2)C(=O)N[C@@H](Cc2cccc3ccccc23)C(=O)N[C@@H](Cc2c[nH]cn2)C(=O)NCCOCCC(=O)NCC(N)=O)NC(=O)[C@H](C(C)C)NC(=O)[C@H](Cc2c[nH]c3ccccc23)NC(=O)[C@H](CC(=O)O)NC(=O)[C@H](C)NC1=O
Turning to B1, in the experiment with IL23R_huFC [1], the IC50 is above 1 µM. Take CADWVCYXHTFX ([1-Nal]; [Sarc]; disulfide) [Hy-CADWVCY-[1-Nal]-HTF-[Sarc]-OH]: the IC50 with IL23R_huFC [1] is above 1 µM.

B2: Ac-CADWVCY-[1-Nal]-[N-Me-His]-[(D)Ala]-F-[Aib]-NH2 (peptide)
peptide: Ac-CADWVCY[1Nal][NMeH][dA]F[Aib]-NH2
modifications: disulfide 1-6
SMILES: CC(=O)N[C@H]1CSSC[C@@H](C(=O)N[C@@H](Cc2ccc(O)cc2)C(=O)N[C@@H](Cc2cccc3ccccc23)C(=O)N(C)[C@@H](Cc2c[nH]cn2)C(=O)N[C@H](C)C(=O)N[C@@H](Cc2ccccc2)C(=O)NC(C)(C)C(N)=O)NC(=O)[C@H](C(C)C)NC(=O)[C@H](Cc2c[nH]c3ccccc23)NC(=O)[C@H](CC(=O)O)NC(=O)[C@H](C)NC1=O
As for B2, the IC50 in the experiment with IL23R_huFC [1] was above 1 µM.

B3: Ac-CADWVCY-[1-Nal]-HTF-[Aib]-NH2 (peptide)
peptide: Ac-CADWVCY[1Nal]HTF[Aib]-NH2
modifications: disulfide 1-6
SMILES: CC(=O)N[C@H]1CSSC[C@@H](C(=O)N[C@@H](Cc2ccc(O)cc2)C(=O)N[C@@H](Cc2cccc3ccccc23)C(=O)N[C@@H](Cc2c[nH]cn2)C(=O)N[C@H](C(=O)N[C@@H](Cc2ccccc2)C(=O)NC(C)(C)C(N)=O)[C@@H](C)O)NC(=O)[C@H](C(C)C)NC(=O)[C@H](Cc2c[nH]c3ccccc23)NC(=O)[C@H](CC(=O)O)NC(=O)[C@H](C)NC1=O
B3 registered an IC50 with IL23R_huFC [1] above 1 µM.

B4: Ac-CADWVCY-[1-Nal]-H-[Aib]-FG-NH2 (peptide)
peptide: Ac-CADWVCY[1Nal]H[Aib]FG-NH2
modifications: disulfide 1-6
SMILES: CC(=O)N[C@H]1CSSC[C@@H](C(=O)N[C@@H](Cc2ccc(O)cc2)C(=O)N[C@@H](Cc2cccc3ccccc23)C(=O)N[C@@H](Cc2c[nH]cn2)C(=O)NC(C)(C)C(=O)N[C@@H](Cc2ccccc2)C(=O)NCC(N)=O)NC(=O)[C@H](C(C)C)NC(=O)[C@H](Cc2c[nH]c3ccccc23)NC(=O)[C@H](CC(=O)O)NC(=O)[C@H](C)NC1=O
In turn, B4 yielded an IC50 with IL23R_huFC [1] above 1 µM. In the case of Ac-CADWVC-NH2 (disulfide 1-6 (inferred)) [Ac-CADWVC-NH2], the IC50 with IL23R_huFC [1] is above 1 µM. Turning to Ac-CADWVCY[Aic′]HTFG[AEA][dK]-NH2 (disulfide 1-6) [Ac-CADWVCY-[Aic]-HTFG-[AEA]-[(D)Lys]-NH2], the IC50 with IL23R_huFC [1] is above 1 µM. Take Ac-CQDWQCYWRENG[AEA][dK]-NH2 (disulfide 1-6 (inferred)) [Ac-CQDWQCYWRENG-[AEA]-[(D)-Lys]-NH2]: the IC50 with IL23R_huFC [2] was below 0.5 µM.

B5: Ac-CQTWQCYWRENG-[AEA]-[(D)Arg]-NH2 (peptide)
peptide: Ac-CQTWQCYWRENG[AEA][dR]-NH2
modifications: disulfide 1-6
SMILES: CC(=O)N[C@H]1CSSC[C@@H](C(=O)N[C@@H](Cc2ccc(O)cc2)C(=O)N[C@@H](Cc2c[nH]c3ccccc23)C(=O)N[C@@H](CCCNC(=N)N)C(=O)N[C@@H](CCC(=O)O)C(=O)N[C@@H](CC(N)=O)C(=O)NCC(=O)NCCOCC(=O)N[C@H](CCCNC(=N)N)C(N)=O)NC(=O)[C@H](CCC(N)=O)NC(=O)[C@H](Cc2c[nH]c3ccccc23)NC(=O)[C@H]([C@@H](C)O)NC(=O)[C@H](CCC(N)=O)NC1=O
On to B5, for which the IC50 with IL23R_huFC [2] is below 0.5 µM.

B6: Ac-CQTWQCYWRENG-[AEA]-[(D)-Lys]-NH2 (peptide)
peptide: Ac-CQTWQCYWRENG[AEA][dK]-NH2
modifications: disulfide 1-6
SMILES: CC(=O)N[C@H]1CSSC[C@@H](C(=O)N[C@@H](Cc2ccc(O)cc2)C(=O)N[C@@H](Cc2c[nH]c3ccccc23)C(=O)N[C@@H](CCCNC(=N)N)C(=O)N[C@@H](CCC(=O)O)C(=O)N[C@@H](CC(N)=O)C(=O)NCC(=O)NCCOCC(=O)N[C@H](CCCCN)C(N)=O)NC(=O)[C@H](CCC(N)=O)NC(=O)[C@H](Cc2c[nH]c3ccccc23)NC(=O)[C@H]([C@@H](C)O)NC(=O)[C@H](CCC(N)=O)NC1=O
The molecule B6 came in with an IC50 with IL23R_huFC [2] below 0.5 µM.

B7: Ac-CQTWQCYWRKNG-[AEA]-[(D)-Lys]-NH2 (peptide)
peptide: Ac-CQTWQCYWRKNG[AEA][dK]-NH2
modifications: disulfide 1-6
SMILES: CC(=O)N[C@H]1CSSC[C@@H](C(=O)N[C@@H](Cc2ccc(O)cc2)C(=O)N[C@@H](Cc2c[nH]c3ccccc23)C(=O)N[C@@H](CCCNC(=N)N)C(=O)N[C@@H](CCCCN)C(=O)N[C@@H](CC(N)=O)C(=O)NCC(=O)NCCOCC(=O)N[C@H](CCCCN)C(N)=O)NC(=O)[C@H](CCC(N)=O)NC(=O)[C@H](Cc2c[nH]c3ccccc23)NC(=O)[C@H]([C@@H](C)O)NC(=O)[C@H](CCC(N)=O)NC1=O
As to B7, the IC50 in the experiment with IL23R_huFC [2] was below 0.5 µM.

B8: Ac-CQTWQCYWRKNG-[AEA]-[(D)-Lys]-NH2 (peptide)
peptide: Ac-CQTWQCYWRKNG[AEA][dK]-NH2
modifications: disulfide 1-6
SMILES: CC(=O)N[C@H]1CSSC[C@@H](C(=O)N[C@@H](Cc2ccc(O)cc2)C(=O)N[C@@H](Cc2c[nH]c3ccccc23)C(=O)N[C@@H](CCCNC(=N)N)C(=O)N[C@@H](CCCCN)C(=O)N[C@@H](CC(N)=O)C(=O)NCC(=O)NCCOCC(=O)N[C@H](CCCCN)C(N)=O)NC(=O)[C@H](CCC(N)=O)NC(=O)[C@H](Cc2c[nH]c3ccccc23)NC(=O)[C@H]([C@@H](C)O)NC(=O)[C@H](CCC(N)=O)NC1=O
For the molecule B8, the IC50 in the experiment with IL23R_huFC [2] was below 0.5 µM.

B9: Ac-CQTWQCYWRENG-[AEA]-[(D)-Lys]-NH2 (peptide)
peptide: Ac-CQTWQCYWRENG[AEA][dK]-NH2
modifications: disulfide 1-6
SMILES: CC(=O)N[C@H]1CSSC[C@@H](C(=O)N[C@@H](Cc2ccc(O)cc2)C(=O)N[C@@H](Cc2c[nH]c3ccccc23)C(=O)N[C@@H](CCCNC(=N)N)C(=O)N[C@@H](CCC(=O)O)C(=O)N[C@@H](CC(N)=O)C(=O)NCC(=O)NCCOCC(=O)N[C@H](CCCCN)C(N)=O)NC(=O)[C@H](CCC(N)=O)NC(=O)[C@H](Cc2c[nH]c3ccccc23)NC(=O)[C@H]([C@@H](C)O)NC(=O)[C@H](CCC(N)=O)NC1=O
B9 came in with a half-maximal inhibitory concentration (IC50) in the experiment with IL23R_huFC [2] below 0.5 µM.

B10: Ac-CQTWQCYWRRNG-[AEA]-[(D)-Lys]-NH2 (peptide)
peptide: Ac-CQTWQCYWRRNG[AEA][dK]-NH2
modifications: disulfide 1-6
SMILES: CC(=O)N[C@H]1CSSC[C@@H](C(=O)N[C@@H](Cc2ccc(O)cc2)C(=O)N[C@@H](Cc2c[nH]c3ccccc23)C(=O)N[C@@H](CCCNC(=N)N)C(=O)N[C@@H](CCCNC(=N)N)C(=O)N[C@@H](CC(N)=O)C(=O)NCC(=O)NCCOCC(=O)N[C@H](CCCCN)C(N)=O)NC(=O)[C@H](CCC(N)=O)NC(=O)[C@H](Cc2c[nH]c3ccccc23)NC(=O)[C@H]([C@@H](C)O)NC(=O)[C@H](CCC(N)=O)NC1=O
B10 came in with an IC50 in the experiment with IL23R_huFC [2] below 0.5 µM.

B11: Ac-CQTWQCYWRENG-[AEA]-[(D)-Lys]-NH2 (peptide)
peptide: Ac-CQTWQCYWRENG[AEA][dK]-NH2
modifications: disulfide 1-6
SMILES: CC(=O)N[C@H]1CSSC[C@@H](C(=O)N[C@@H](Cc2ccc(O)cc2)C(=O)N[C@@H](Cc2c[nH]c3ccccc23)C(=O)N[C@@H](CCCNC(=N)N)C(=O)N[C@@H](CCC(=O)O)C(=O)N[C@@H](CC(N)=O)C(=O)NCC(=O)NCCOCC(=O)N[C@H](CCCCN)C(N)=O)NC(=O)[C@H](CCC(N)=O)NC(=O)[C@H](Cc2c[nH]c3ccccc23)NC(=O)[C@H]([C@@H](C)O)NC(=O)[C@H](CCC(N)=O)NC1=O
On to B11, for which the IC50 in the experiment with IL23R_huFC [2] was below 0.5 µM.

B12: Ac-CADWVCY-[1-Nal]-H-[Aib]-[(D)Phe]-G-NH2 (peptide)
peptide: Ac-CADWVCY[1Nal]H[Aib][dF]G-NH2
modifications: disulfide 1-6
SMILES: CC(=O)N[C@H]1CSSC[C@@H](C(=O)N[C@@H](Cc2ccc(O)cc2)C(=O)N[C@@H](Cc2cccc3ccccc23)C(=O)N[C@@H](Cc2c[nH]cn2)C(=O)NC(C)(C)C(=O)N[C@H](Cc2ccccc2)C(=O)NCC(N)=O)NC(=O)[C@H](C(C)C)NC(=O)[C@H](Cc2c[nH]c3ccccc23)NC(=O)[C@H](CC(=O)O)NC(=O)[C@H](C)NC1=O
As to B12, the IC50 with IL23R_huFC [1] was above 1 µM. As for Ac-CQTWQCYW[NMeE]NG[AEA][dK] (disulfide 1-6 (inferred)) [Ac-CQTWQCYW[N-MeGlu]-NG-[AEA]-[(D)-Lys]], in the experiment with IL23R_huFC [1], the IC50 is above 1 µM.

B13: Ac-CADWVCY-[Bip]-HTFG-[AEA]-[(D)Lys]-NH2 (peptide)
peptide: Ac-CADWVCY[Bip]HTFG[AEA][dK]-NH2
modifications: disulfide 1-6
SMILES: CC(=O)N[C@H]1CSSC[C@@H](C(=O)N[C@@H](Cc2ccc(O)cc2)C(=O)N[C@@H](Cc2ccc(-c3ccccc3)cc2)C(=O)N[C@@H](Cc2c[nH]cn2)C(=O)N[C@H](C(=O)N[C@@H](Cc2ccccc2)C(=O)NCC(=O)NCCOCC(=O)N[C@H](CCCCN)C(N)=O)[C@@H](C)O)NC(=O)[C@H](C(C)C)NC(=O)[C@H](Cc2c[nH]c3ccccc23)NC(=O)[C@H](CC(=O)O)NC(=O)[C@H](C)NC1=O
On to B13, for which the IC50 with IL23R_huFC [1] was above 1 µM. As to H-CADWVCY[1Nal]HT[dF]-OH (disulfide 1-6 (inferred)) [Hy-CADWVCY-[1-Nal]-HT-[(D)Phe]-OH], the IC50 with IL23R_huFC [1] is above 1 µM. Still for that read-out and setting: the figure for CADWXCYXHTF ([Sarc]; [1-Nal]; disulfide) [Hy-CADW-[Sarc]-CY-[1-Nal]-HTF-OH] is above 1 µM; for Ac-CADWVCYWHRCGWWGC-NH2 (disulfide (positions not given here)) [Ac-CADWVCYWHRCGWWGC-NH2] it is above 1 µM.

The IC50 is the concentration at which inhibition is half-maximal. A high value points to weaker potency in that assay.
